Tests used:
Assay in all cases: cell-based or functional assay
[1] = molecular target: Abl(H396P)(h) (human) (UniProt P00519)
[2] = molecular target: Abl(M351T)(h) (human) (UniProt P00519)
[3] = molecular target: T1, Aurora-A(h) (human) (UniProt O14965)
T1 sequence (looked up): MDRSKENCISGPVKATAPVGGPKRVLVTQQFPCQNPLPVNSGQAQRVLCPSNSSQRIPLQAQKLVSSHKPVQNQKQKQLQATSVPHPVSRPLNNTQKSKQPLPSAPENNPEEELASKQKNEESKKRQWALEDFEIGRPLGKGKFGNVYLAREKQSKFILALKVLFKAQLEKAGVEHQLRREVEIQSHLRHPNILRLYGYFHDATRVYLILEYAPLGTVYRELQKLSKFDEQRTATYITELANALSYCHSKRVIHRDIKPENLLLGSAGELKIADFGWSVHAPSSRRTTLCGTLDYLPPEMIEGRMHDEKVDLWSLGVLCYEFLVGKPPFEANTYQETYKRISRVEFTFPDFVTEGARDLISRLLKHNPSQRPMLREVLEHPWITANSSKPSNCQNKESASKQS

[4] = molecular target: CK1γ2(h) (human) (UniProt P78368)
[5] = molecular target: CK1γ3(h) (human) (UniProt Q9Y6M4)
[6] = molecular target: EGFR(T790M)(h) (human) (UniProt P00533)
[7] = molecular target: EphA2(h) (human) (UniProt P29317)
[8] = molecular target: FGFR1(V561M)(h) (human) (UniProt P11362)
[9] = molecular target: Fgr(h) (human) (UniProt P09769)
[10] = molecular target: T2, Fms(Y969C)(h) (human) (UniProt P07333)
T2 sequence (looked up): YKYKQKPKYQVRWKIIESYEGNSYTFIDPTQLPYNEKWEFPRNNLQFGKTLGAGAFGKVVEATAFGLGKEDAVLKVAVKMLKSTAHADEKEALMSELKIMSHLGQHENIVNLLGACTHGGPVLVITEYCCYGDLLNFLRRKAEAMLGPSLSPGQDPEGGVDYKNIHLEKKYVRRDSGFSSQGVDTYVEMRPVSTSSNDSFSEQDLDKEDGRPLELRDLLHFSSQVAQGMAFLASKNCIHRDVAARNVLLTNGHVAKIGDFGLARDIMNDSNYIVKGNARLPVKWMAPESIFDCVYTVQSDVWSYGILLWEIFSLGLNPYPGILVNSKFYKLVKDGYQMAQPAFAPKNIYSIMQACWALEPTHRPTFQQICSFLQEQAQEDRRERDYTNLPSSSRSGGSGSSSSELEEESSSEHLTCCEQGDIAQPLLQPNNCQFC

[11] = molecular target: HIPK3(h) (human) (UniProt Q9H422)
[12] = molecular target: JAK2(h) (human) (UniProt O60674)
[13] = molecular target: JNK1α1(h) (human) (UniProt P45983)
[14] = molecular target: Lck(h) (human) (UniProt P06239)
[15] = molecular target: MKK7β(h) (human) (UniProt O14733)
[16] = molecular target: PAK3(h) (human) (UniProt O75914)
[17] = molecular target: T3, TAK1(h) (human) (UniProt O43318)
T3 sequence (looked up): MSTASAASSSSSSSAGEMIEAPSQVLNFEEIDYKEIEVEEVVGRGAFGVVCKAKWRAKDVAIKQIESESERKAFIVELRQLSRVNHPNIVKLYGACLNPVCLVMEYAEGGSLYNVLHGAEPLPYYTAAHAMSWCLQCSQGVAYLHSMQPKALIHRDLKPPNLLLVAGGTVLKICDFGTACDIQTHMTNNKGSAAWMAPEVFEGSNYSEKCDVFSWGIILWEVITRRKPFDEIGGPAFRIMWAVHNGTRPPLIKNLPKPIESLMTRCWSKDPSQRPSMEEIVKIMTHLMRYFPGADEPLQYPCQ

[18] = molecular target: Yes(h) (human) (UniProt P07947)
[19] = molecular target: ACK1(h) (human) (UniProt Q07912)
[20] = molecular target: BTK(h) (human) (UniProt Q06187)
[21] = molecular target: FAK(h) (human) (UniProt Q05397)
[22] = molecular target: FGFR3(h) (human) (UniProt P22607)
[23] = molecular target: GRK5(h) (human) (UniProt P34947)
[24] = molecular target: IGF-1R(h) (human) (UniProt P08069)
[25] = molecular target: JAK3(h) (human) (UniProt P52333)
[26] = molecular target: MAPK1(h) (human) (UniProt P28482)
[27] = molecular target: MRCKα(h) (human) (UniProt Q5VT25)
[28] = molecular target: Met(Y1248D)(h) (human) (UniProt P08581)
[29] = molecular target: Met(Y1248H)(h) (human) (UniProt P08581)
[30] = molecular target: PAK6(h) (human) (UniProt Q9NQU5)
[31] = molecular target: PDGFRα(D842V)(h) (human) (UniProt P16234)
[32] = molecular target: PKCη(h) (human) (UniProt P24723)
[33] = molecular target: Tie2(R849W)(h) (human) (UniProt Q02763)
[34] = molecular target: cKit(V560G)(h) (human) (UniProt P10721)
[35] = molecular target: PAR-1Bα(h) (human) (UniProt Q7KZI7)
[36] = molecular target: c-RAF(h) (human) (UniProt P04049)

Sequence of Abl(M351T)(h) (human) (P00519 27-1130 M351T limits assumed): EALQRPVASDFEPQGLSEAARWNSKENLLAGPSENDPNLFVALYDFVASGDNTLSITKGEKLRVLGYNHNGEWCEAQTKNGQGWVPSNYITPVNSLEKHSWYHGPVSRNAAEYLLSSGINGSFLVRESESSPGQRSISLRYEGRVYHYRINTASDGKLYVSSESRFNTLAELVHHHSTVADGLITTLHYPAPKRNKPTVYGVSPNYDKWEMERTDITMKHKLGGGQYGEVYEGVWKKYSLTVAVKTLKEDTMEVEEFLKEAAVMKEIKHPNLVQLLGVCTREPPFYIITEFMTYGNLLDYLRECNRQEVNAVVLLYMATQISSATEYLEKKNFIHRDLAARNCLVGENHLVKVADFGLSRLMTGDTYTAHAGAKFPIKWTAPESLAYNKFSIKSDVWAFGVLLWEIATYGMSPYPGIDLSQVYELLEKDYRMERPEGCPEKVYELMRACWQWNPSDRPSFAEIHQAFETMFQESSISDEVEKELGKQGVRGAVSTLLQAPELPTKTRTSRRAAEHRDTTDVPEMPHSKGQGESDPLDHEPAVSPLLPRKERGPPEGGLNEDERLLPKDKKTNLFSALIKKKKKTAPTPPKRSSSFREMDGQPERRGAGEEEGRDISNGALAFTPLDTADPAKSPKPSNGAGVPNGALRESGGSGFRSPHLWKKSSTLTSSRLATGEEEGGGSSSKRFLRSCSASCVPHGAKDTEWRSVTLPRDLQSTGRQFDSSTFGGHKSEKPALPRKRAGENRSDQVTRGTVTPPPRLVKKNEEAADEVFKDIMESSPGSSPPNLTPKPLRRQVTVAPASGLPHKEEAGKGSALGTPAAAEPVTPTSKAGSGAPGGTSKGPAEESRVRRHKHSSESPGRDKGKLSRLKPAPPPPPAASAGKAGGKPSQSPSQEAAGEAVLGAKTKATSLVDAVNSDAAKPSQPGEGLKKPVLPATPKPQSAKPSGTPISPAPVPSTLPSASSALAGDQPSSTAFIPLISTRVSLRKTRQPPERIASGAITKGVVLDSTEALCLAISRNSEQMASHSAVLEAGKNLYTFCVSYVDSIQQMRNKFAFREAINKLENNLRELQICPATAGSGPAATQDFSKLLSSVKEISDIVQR
Sequence of EphA2(h) (human) (P29317 559-976 limits assumed): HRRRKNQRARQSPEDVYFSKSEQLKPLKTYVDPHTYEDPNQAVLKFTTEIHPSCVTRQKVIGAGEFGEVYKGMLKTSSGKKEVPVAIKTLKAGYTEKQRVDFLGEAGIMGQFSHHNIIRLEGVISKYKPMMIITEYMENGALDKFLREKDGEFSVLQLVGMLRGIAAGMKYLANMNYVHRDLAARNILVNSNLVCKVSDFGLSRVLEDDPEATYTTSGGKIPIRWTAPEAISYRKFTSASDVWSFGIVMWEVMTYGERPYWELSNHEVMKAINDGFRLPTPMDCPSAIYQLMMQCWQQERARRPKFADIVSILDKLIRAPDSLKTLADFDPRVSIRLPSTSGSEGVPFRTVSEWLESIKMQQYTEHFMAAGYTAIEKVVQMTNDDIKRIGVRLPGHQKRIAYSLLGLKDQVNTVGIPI
Sequence of PDGFRα(D842V)(h) (human) (P16234 550-1089 D842V limits assumed): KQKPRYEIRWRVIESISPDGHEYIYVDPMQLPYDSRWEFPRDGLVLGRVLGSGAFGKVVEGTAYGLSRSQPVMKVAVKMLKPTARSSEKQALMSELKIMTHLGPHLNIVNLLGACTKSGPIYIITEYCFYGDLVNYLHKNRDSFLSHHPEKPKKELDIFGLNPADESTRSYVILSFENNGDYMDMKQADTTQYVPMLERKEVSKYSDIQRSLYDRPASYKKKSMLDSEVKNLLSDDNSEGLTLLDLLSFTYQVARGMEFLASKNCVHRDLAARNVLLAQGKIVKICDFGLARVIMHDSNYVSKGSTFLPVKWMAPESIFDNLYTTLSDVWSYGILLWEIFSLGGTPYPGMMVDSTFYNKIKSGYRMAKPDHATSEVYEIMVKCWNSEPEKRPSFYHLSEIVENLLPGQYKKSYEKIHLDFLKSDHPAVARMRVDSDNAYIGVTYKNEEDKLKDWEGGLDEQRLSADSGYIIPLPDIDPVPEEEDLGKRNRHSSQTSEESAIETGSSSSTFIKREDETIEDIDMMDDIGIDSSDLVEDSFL
Sequence of FGFR1(V561M)(h) (human) (P11362 456-765 V561M limits assumed): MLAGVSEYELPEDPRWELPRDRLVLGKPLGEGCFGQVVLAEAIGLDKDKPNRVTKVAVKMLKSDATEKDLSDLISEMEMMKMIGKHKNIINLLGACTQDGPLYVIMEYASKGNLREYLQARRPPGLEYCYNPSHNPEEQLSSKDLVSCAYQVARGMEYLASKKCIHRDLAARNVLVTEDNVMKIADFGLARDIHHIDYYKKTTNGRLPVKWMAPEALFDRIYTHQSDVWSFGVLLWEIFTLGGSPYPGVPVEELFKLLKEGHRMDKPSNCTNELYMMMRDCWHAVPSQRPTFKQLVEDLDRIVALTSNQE
Sequence of MKK7β(h) (human) (O14733 whole entry): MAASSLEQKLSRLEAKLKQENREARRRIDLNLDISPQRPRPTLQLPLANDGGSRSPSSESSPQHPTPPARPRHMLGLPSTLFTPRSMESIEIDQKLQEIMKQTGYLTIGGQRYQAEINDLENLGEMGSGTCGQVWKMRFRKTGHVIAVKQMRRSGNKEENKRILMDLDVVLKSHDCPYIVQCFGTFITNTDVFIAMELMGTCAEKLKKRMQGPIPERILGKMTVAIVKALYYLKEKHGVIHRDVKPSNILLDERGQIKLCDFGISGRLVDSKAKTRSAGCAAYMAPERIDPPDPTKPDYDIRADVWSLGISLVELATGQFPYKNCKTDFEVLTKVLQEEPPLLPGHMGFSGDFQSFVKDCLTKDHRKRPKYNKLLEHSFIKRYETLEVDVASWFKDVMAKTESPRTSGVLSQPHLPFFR
Sequence of Abl(H396P)(h) (human) (P00519 27-1130 H396P limits assumed): as the sequence (P00519 27-1130 M351T limits assumed) above, with T325M, H370P counted along it
Sequence of cKit(V560G)(h) (human) (P10721 544-976 V560G): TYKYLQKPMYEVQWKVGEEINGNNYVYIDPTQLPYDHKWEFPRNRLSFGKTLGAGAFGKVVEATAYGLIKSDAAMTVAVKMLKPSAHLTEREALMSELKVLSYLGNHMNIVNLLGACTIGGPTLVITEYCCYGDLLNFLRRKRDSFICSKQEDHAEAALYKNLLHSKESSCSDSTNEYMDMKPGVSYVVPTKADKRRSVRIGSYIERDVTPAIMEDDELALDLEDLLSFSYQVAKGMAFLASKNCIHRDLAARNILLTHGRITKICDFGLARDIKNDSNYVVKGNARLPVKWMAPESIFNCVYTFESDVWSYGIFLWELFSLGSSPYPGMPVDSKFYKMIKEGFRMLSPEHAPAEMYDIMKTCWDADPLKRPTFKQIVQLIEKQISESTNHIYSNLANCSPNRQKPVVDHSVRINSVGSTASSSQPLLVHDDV
Sequence of FGFR3(h) (human) (P22607 448-759 limits assumed): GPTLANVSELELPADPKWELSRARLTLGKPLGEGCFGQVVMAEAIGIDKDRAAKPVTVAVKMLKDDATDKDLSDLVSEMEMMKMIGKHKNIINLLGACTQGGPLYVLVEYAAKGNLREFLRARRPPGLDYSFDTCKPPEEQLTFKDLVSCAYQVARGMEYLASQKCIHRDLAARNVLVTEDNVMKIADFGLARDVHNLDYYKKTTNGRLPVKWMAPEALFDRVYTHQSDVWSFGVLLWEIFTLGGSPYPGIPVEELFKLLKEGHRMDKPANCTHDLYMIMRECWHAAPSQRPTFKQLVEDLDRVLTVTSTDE
Sequence of Tie2(R849W)(h) (human) (Q02763 771-1124 R849W limits assumed): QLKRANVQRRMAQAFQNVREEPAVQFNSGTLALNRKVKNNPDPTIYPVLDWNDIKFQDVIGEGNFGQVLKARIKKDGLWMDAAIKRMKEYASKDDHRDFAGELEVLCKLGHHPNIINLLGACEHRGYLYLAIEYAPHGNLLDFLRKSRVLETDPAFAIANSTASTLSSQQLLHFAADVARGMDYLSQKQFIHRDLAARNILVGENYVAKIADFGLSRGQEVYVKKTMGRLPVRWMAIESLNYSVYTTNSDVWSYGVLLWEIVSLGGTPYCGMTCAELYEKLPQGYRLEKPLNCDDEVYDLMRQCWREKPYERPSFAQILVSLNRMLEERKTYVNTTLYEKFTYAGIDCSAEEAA
Sequence of MAPK1(h) (human) (P28482 whole entry): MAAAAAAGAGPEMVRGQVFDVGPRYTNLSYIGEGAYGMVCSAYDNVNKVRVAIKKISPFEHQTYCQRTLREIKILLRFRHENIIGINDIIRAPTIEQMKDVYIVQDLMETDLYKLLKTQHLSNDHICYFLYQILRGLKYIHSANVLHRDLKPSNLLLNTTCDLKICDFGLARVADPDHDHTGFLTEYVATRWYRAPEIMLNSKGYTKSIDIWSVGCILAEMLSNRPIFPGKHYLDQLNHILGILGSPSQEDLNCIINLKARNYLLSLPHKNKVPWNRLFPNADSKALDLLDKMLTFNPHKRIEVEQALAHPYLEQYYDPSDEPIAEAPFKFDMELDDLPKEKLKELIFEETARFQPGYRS
Sequence of PAK3(h) (human) (O75914 other isoform, or with tags, fused parts or gaps limits assumed): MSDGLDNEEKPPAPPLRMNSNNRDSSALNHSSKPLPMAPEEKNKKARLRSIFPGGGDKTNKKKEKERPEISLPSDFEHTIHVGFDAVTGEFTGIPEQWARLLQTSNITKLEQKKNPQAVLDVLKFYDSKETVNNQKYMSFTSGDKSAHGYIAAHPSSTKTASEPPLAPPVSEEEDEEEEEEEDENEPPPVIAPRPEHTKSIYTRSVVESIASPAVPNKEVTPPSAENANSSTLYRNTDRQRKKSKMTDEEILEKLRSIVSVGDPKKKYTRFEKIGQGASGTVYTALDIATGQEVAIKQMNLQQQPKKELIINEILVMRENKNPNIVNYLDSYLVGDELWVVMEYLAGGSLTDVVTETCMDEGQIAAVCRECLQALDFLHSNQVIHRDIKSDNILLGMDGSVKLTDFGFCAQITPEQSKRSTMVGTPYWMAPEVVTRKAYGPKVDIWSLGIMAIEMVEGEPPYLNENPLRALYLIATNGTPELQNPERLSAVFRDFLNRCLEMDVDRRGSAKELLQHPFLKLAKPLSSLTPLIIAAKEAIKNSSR

Substance	% activity at 100 µM [1]	% activity at 100 µM [2]	% activity at 100 µM [3]	% activity at 100 µM [6]	% activity at 100 µM [7]	% activity at 100 µM [8]	% activity at 100 µM [9]	% activity at 100 µM [10]	% activity at 100 µM [11]	% activity at 100 µM [12]	% activity at 100 µM [13]	% activity at 100 µM [14]	% activity at 100 µM [15]	% activity at 100 µM [17]	% activity at 100 µM [18]	% activity at 100 µM [19]	% activity at 100 µM [20]	% activity at 100 µM [21]	% activity at 100 µM [22]	% activity at 100 µM [25]	further results
MMI-0300 (peptide)	101%	90%	92%	100%	31%	74%	60%	72%	93%	133%	97%	-2%	100%	122%	67%	–	–	–	–	–	% activity at 100 µM [4]: 123%; % activity at 100 µM [5]: 125%; % activity at 100 µM [16]: 140%
MMI-0400 (peptide)	–	–	–	–	17%	74%	47%	91%	–	–	98%	–	94%	177%	14%	95%	94%	96%	0%	122%	% activity at 100 µM [23]: 131%; % activity at 100 µM [24]: 90%; % activity at 100 µM [26]: 100%; % activity at 100 µM [27]: 97%; % activity at 100 µM [28]: 31%; % activity at 100 µM [29]: 63%; % activity at 100 µM [30]: 100%; % activity at 100 µM [31]: 118%; % activity at 100 µM [32]: 98%; % activity at 100 µM [33]: 108%; % activity at 100 µM [34]: 124%
MMI-0500 (peptide)	51%	61%	110%	70%	–	–	–	–	85%	49%	–	359%	–	–	–	64%	18%	94%	10%	95%	% activity at 100 µM [27]: 5%; % activity at 100 µM [28]: 218%; % activity at 100 µM [29]: 126%; % activity at 100 µM [35]: 97%; % activity at 100 µM [31]: 170%; % activity at 100 µM [32]: 45%; % activity at 100 µM [36]: 19%; % activity at 100 µM [34]: 198%

From patent US20150064134A1
